Test results as given in patent US8106154B2, “Nitrogen-based linkers for attaching modifying groups to polypeptides and other macromolecules” (Affymax, Inc., priority 2007, dated 2012).

Columns and labels:
Type in all cases: cell-based
[1] = tested on: primary human bone marrow pluripotent stem cells
Procedure: EPO-R signaling stimulates the differentiation of bone marrow stem cells into proliferating red blood cell presursors. This assay measured the ability of test peptides to stimulate the proliferation and differentiation of red blood cell precursors from primary human bone marrow pluripotent stem cells. Test peptides were added to cultures of human bone marrow cells, and the cells are incubated for 16 days. Thereafter, the number of red blood cell colonies were counted. The concentration of test peptide at which the number of formed colonies is 90% of maximum, relative to that observed with EPO, was recorded as the EC90.

human EPO-R [2] = biological target: T1, human EPO-R (Homo sapiens, UniProt P19235); experiment: Reporter assay (fos promoter-driven luciferase); conditions: murine pre-B-cell line expressing human EPO-R with luciferase reporter; 4 hr incubation; half-maximal relative to EPO
T1 construct: expressed in transfected cells; host or cells: murine pre-B-cell line
T1 sequence (P19235 25-508): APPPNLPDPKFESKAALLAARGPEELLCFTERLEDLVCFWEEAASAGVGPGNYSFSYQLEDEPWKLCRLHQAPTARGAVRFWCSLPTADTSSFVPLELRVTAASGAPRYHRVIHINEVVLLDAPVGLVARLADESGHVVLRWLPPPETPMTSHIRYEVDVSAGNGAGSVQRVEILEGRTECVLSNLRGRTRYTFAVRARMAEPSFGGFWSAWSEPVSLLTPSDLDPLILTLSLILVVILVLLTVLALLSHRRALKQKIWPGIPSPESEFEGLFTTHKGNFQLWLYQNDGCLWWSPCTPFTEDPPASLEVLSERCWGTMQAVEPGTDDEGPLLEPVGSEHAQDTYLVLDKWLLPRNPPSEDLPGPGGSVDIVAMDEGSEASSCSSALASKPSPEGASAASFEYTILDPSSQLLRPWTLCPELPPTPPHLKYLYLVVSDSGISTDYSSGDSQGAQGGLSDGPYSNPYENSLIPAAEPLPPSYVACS
Description: This assay was based upon a murine pre-B-cell line transfected to express human EPO-R and further transfected with a fos promoter-driven luciferase reporter gene construct. Upon exposure to EPO or another EPO-R agonist, such cells respond by synthesizing luciferase. Luciferase causes the emission of light upon addition of its substrate luciferin. Thus, the level of EPO-R activation in such cells may be quantitated via measurement of luciferase activity.
The activity of a test peptide was measured by adding serial dilutions of the test peptide to cells, which were then incubated for 4 hr. After incubation, luciferin substrate was added to the cells, and light emission was measured. The concentration of test peptide that results in a half-maximal emission of light, relative to that observed with EPO, was recorded as the EC50.

human EPO-R [3] = biological target: T1, human EPO-R; experiment: Proliferation assay (MTT); conditions: murine pre-B-cell line expressing human EPO-R, 48 hours incubation, half-maximal relative to EPO
Procedure: This assay was based upon a murine pre-B-cell line transfected to express human EPO-R. Proliferation of this cell line is dependent on EPO-R activation. The degree of cell proliferation was quantitated using MTT, where the signal in the MTT assay is proportional to the number of viable cells. The activity of a test peptide was measured by adding serial dilutions of the test peptide to cells, which were then incubated for 48 hours. After incubation, MTT was added to the cells, and absorbance was measured. The concentration of test peptide that results in a half-maximal absorbance, relative to that observed with EPO, was recorded as the EC50.

| EC90 [1] | Molecule | EC50 (human EPO-R [2]) | EC50 (human EPO-R [3]) |
| --- | --- | --- | --- |
| 0.026 nM | CC[C@H](C)[C@@H]1NC(=O)[C@@H]2CCCN2C(=O)CNC(=O)[C@H](CCSC)NC(=O)[C@H](Cc2c[nH]cn2)NC(=O)[C@@H](NC(=O)[C@H](C)NC(=O)[C@H](Cc2ccc(O)cc2)NC(=O)[C@H](CC(C)C)NC(=O)CNC(=O)CNC(C)=O)CSSC[C@@H](C(=O)N[C@@H](CCC(N)=O)C(=O)N2CCC[C@H]2C(=O)N[C@@H](CC(C)C)C(=O)N[C@@H](CCCNC(=N)N)C(=O)N(C)CC(=O)N[C@@H](CCCCNC(=O)CN(CC(=O)NCCCC[C@H](NC(=O)CN(C)C(=O)[C@H](CCCNC(=N)N)NC(=O)[C@H](CC(C)C)NC(=O)[C@@H]2CCCN2C(=O)[C@H](CCC(N)=O)NC(=O)[C@@H]2CSSC[C@H](NC(=O)[C@H](C)NC(=O)[C@H](Cc3ccc(O)cc3)NC(=O)[C@H](CC(C)C)NC(=O)CNC(=O)CNC(C)=O)C(=O)N[C@@H](Cc3c[nH]cn3)C(=O)N[C@@H](CCSC)C(=O)NCC(=O)N3CCC[C@H]3C(=O)N[C@@H]([C@@H](C)CC)C(=O)N[C@@H]([C@@H](C)O)C(=O)N[C@@H](Cc3cccc4ccccc34)C(=O)N[C@@H](C(C)C)C(=O)N2)C(N)=O)C(=O)CCCC(=O)N(CCN)CCN)C(N)=O)NC(=O)[C@H](C(C)C)NC(=O)[C@H](Cc2cccc3ccccc23)NC(=O)[C@H]([C@@H](C)O)NC1=O [Example 8 peptide (non-PEGylated)] |  |  |
|  | Compound V: As Example 10 but peptide monomer Ac-GGLYACHYGPIT(Nal)VCQPLR(MeG)K, SEQ ID NO: 23 (GGLYACHYGPITXVCQPLRXK; not fully specified; conjugate chemistry not built) | 0.69 nM | 0.44 nM |
